Assay results: article PMC9482650, “Quantitative fragmentomics allow affinity mapping of interactomes” (Nature Communications, 2022)

Test system: HEK293T cells
Assay: Label-free MS proteome of stable cell lines expressing HPV16 E6 or E6ΔPBM
Assay type: cell-based, human
Conditions: protein level; for Difference log2 E6/Ctrl / Ratio E6/Ctrl: E6 cell line vs control; for Difference log2 dPBM/E6 / Ratio dPBM/E6: dPBM cell line vs E6 cell line; for Difference log2 dPBM/Ctrl / Ratio dPBM/Ctrl: dPBM cell line vs control
Method: HEK293T and HeLa cells were authenticated and found 100% identity to ATCC cat. CRL-3216 and ATCC cat. CCL-2, respectively. Jurkat and HaCat cell lines were not authenticated (original source: ECACC and Deutsches Krebsforschungszentrum DKFZ, respectively). HeLa cells were grown in DMEM (1 g/L glucose, Gibco) medium completed with 5% FCS and 40 μg/mL gentamicin, diluted every 3rd/4th day 1/10. HaCat cells were grown in DMEM (1 g/L glucose, Gibco) medium completed with 10% FCS and 40 μg/mL gentamicin, diluted every 3rd/4th day 1/4. Jurkat cells were grown in RPMI (Gibco) medium completed with 10% FCS and 40 μg/mL gentamicin, diluted every 3rd/4th day 1/12. All cells were kept at 37 °C and 5% CO2. For proteomics analyses cells were seeded on T-175 flasks. After they reached confluency, adherent cells were washed with PBS once and collected by scraping with ice-cold lysis buffer (Hepes-KOH pH 7.5 50 mM, NaCl 150 mM, Triton X-100 1%, complete EDTA-free protease inhibitor cocktail 1×, EDTA 2 mM, TCEP 5 mM, glycerol 10%). Jurkat cells were collected by 1000 g × centrifugation, washed once with PBS, then collected by 1000 g × 5 min centrifugation again and lysed in ice-cold lysis buffer. Lysates were sonicated 4 × 20 s with 1 s long pulses on ice, then incubated rotating at 4 °C for 30 min. Lysates were centrifuged at 12,000 rpm 4 °C for 20 min and supernatant was kept for further analysis. Concentration determination was carried out by standard Bradford method (Bio-Rad Protein Assay Dye Reagent #5000006) using BSA (MP BIomedicals #160069) as control on a Bio-Rad SmartSpec 3000 spectrophotometer instrument.
The samples were precipitated with TCA 20% overnight at 4 °C and centrifuged at 14,000 rpm for 10 min at 4 °C. The protein pellets were washed twice with 1 mL cold acetone and air dried. The protein extracts were solubilized in urea 8 M, reduced with 5 mM TCEP for 30 min, and alkylated with 10 mM iodoacetamide for 30 min in the dark. Double digestion was performed at 37 °C with 500 ng endoproteinase Lys-C for 4 h, followed by fourfold dilution and an overnight digestion with 500 ng trypsin. Peptide mixtures were then desalted on C18 spin-column and dried on Speed-Vacuum.
Samples were analyzed using an Ultimate 3000 nano-RSLC (Thermo Scientific, San Jose California) coupled in line with a LTQ-Orbitrap ELITE mass spectrometer via a nano-electrospray ionization source (Thermo Scientific, San Jose California). Peptide mixtures were injected in 0.1% TFA on a C18 Acclaim PepMap100 trap-column (75 µm ID × 2 cm, 3 µm, 100 Å, Thermo Fisher Scientific) for 3 min at 5 µL/min with 2% ACN, 0.1% FA in H2O and then separated on a C18 Accucore nano-column (75 µm ID × 50 cm, 2.6 µm, 150 Å, Thermo Fisher Scientific) at 220 nl/min and 38 °C with a 90 min linear gradient from 5% to 30% buffer B (A: 0.1% FA in H2O/B: 99% ACN, 0.1% FA in H2O), regeneration at 5% B. The mass spectrometer was operated in positive ionization mode, in data-dependent mode with survey scans from m/z 350–1500 acquired in the Orbitrap at a resolution of 120,000 at m/z 400. The 20 most intense peaks from survey scans were selected for further fragmentation in the Linear Ion Trap with an isolation window of 2.0 Da and were fragmented by CID with normalized collision energy of 35%. (TOP20CID method) Unassigned and single charged states were excluded from fragmentation. The Ion Target Value for the survey scans (in the Orbitrap) and the MS2 mode (in the Linear Ion Trap) were set to 1E6 and 5E3 respectively and the maximum injection time was set to 100 ms for both scan modes. Dynamic exclusion was set to 20 s after one repeat count with mass width at ±10 ppm.
Proteins were identified by database searching using SequestHT (Thermo Fisher Scientific) with Proteome Discoverer 2.4 software (PD2.4, Thermo Fisher Scientific) on human FASTA database downloaded from SwissProt (reviewed, release 2020_11_27, 20304 entries, https://www.uniprot.org/). […]

Row | Molecule | Difference log2 E6/Ctrl | Ratio E6/Ctrl | Difference log2 dPBM/E6 | Ratio dPBM/E6 | Difference log2 dPBM/Ctrl | Ratio dPBM/Ctrl
1 | FERMT2 (protein, UniProt Q96AC1 1-680, looked up) Fermitin family homolog 2: MALDGIRMPDGCYADGTWELSVHVTDLNRDVTLRVTGEVHIGGVMLKLVEKLDVKKDWSDHALWWEKKRTWLLKTHWTLDKYGIQADAKLQFTPQHKLLRLQLPNMKYVKVKVNFSDRVFKAVSDICKTFNIRHPEELSLLKKPRDPTKKKKKKLDDQSEDEALELEGPLITPGSGSIYSSPGLYSKTMTPTYDAHDGSPLSPTSAWFGDSALSEGNPGILAVSQPITSPEILAKMFKPQALLDKAKINQGWLDSSRSLMEQDVKENEALLLRFKYYSFFDLNPKYDAIRINQLYEQAKWAILLEEIECTEEEMMMFAALQYHINKLSIMTSENHLNNSDKEVDEVDAALSDLEITLEGGKTSTILGDITSIPELADYIKVFKPKKLTLKGYKQYWCTFKDTSISCYKSKEESSGTPAHQMNLRGCEVTPDVNISGQKFNIKLLIPVAEGMNEIWLRCDNEKQYAHWMAACRLASKGKTMADSSYNLEVQNILSFLKMQHLNPDPQLIPEQITTDITPECLVSPRYLKKYKNKQITARILEAHQNVAQMSLIEAKMRFIQAWQSLPEFGITHFIARFQGGKKEELIGIAYNRLIRMDASTGDAIKTWRFSNMKQWNVNWEIKMVTVEFADEVRLSFICTEVDCKVVHEFIGGYIFLSTRAKDQNESLDEEMFYKLTSGWV | 0.234 | 1.176 | -3.123 | 0.1148 | -2.889 | 0.135
2 | CRTAP (protein, UniProt O75718 27-401, looked up) Cartilage-associated protein: QYERYSFRSFPRDELMPLESAYRHALDKYSGEHWAESVGYLEISLRLHRLLRDSEAFCHRNCSAAPQPEPAAGLASYPELRLFGGLLRRAHCLKRCKQGLPAFRQSQPSREVLADFQRREPYKFLQFAYFKANNLPKAIAAAHTFLLKHPDDEMMKRNMAYYKSLPGAEDYIKDLETKSYESLFIRAVRAYNGENWRTSITDMELALPDFFKAFYECLAACEGSREIKDFKDFYLSIADHYVEVLECKIQCEENLTPVIGGYPVEKFVATMYHYLQFAYYKLNDLKNAAPCAVSYLLFDQNDKVMQQNLVYYQYHRDTWGLSDEHFQPRPEAVQFFNVTTLQKELYDFAKENIMDDDEGEVVEYVDDLLELEETS | 1.355 | 2.558 | -3.496 | 0.08864 | -2.141 | 0.2267
3 | ATP5IF1 (protein, UniProt Q9UII2 26-106, looked up) ATPase inhibitor, …: GSDQSENVDRGAGSIREAGGAFGKREQAEEERYFRAQSREQLAALKKHHEEEIVHHKKEIERLQKEIERHKQKIKMLKHDD | 4.465 | 22.0916 | -4.258 | 0.05227 | 0.2076 | 1.155
